In patent publication US6458943 (INSTITUT NATIONAL DE LA SANTE ET DE LA RECHERCHE MEDICALE, dated 2002):

B1: in vitro-translated 35S-labelled mD52 (pTL1mD52) (other)
chain: MDRGEQGLLKTEPVAEEGEDAVTMLSAPEALTEEEQEELRRELTKVEEEIQTLSQVLAAKEKHLAELKRKLGISSLQEFKQNIAKGWQDVTATNAYKKTSETLSQAGQKASAAFSSVGSVITKKLEDVKNSPTFKSFEEKVENLKSKVGGAKPAGGDFGEVLNSTANATSTMTTEPPPEQMTESP
modifications: 35S-methionine label
B2: in vitro-translated 35S-labelled hD52 (pTL1hD52) (other)
chain: MDRGEQGLLRTDPVPEEGEDVAATISATETLSEEEQEELRRELAKVEEEIQTLSQVLAAKEKHLAEIKRKLGINSLQELKQNIAKGWQDVTATSAYKKTSETLSQAGQKASAAFSSVGSVITKKLEDVKNSPTFKSFEEKVENLKSKVGGTKPAGGDFGEVLNSAANASATTTEPLPEKTQESL
modifications: 35S-methionine label
B3: in vitro-translated 35S-labelled hD54-ins2 (pTL1hD54-ins2) (other)
chain: MDSAGQDINLNSPNKGLLSDSMTDVPVDTGVAARTPAVEGLTEAEEEELRAELTKVEEEIVTLRQVLAAKEKHCGELKRRLGLSTLGELKQNLSRSWHDVQVSSAYKKTQETLSQAGQKTSAALSTVGSAISRKLGDMRNSATFKSFEDRVGTIKSKVVGDRENGSDNLPSSAGSGDKPLSDPAPF
modifications: 35S-methionine label
B4: hD52 interactor (GAL4 activation domain fusion, pAD-GAL4hD52) (other)
chain: PSALFGGANFNQSGNIADSSLSFTFTNSSNGPNLITTQTNSQALSQPIASSNVHDNFMNNEITASKIDDGNNSKPLSPGWTDQTAYNAFGITTGMFNTTTMDDVYNYLFDDEDTPPNPKKEMDRGEQGLLRTDPVPEEGEDVAATISATETLSEEEQEELRRELAKVEEEIQTLSQVLAAKEKHLAEIKRKLGINSLQELKQNIAKGWQDVTATSAYKKTSETLSQAGQKASAAFSSVGSVITKKLEDVKNSPTFKSFEEKVENLKSKVGGTKPAGGDFGEVLNSAANASATTTEPLPEKTQESL
notes: range 761-881; also called hD52^c
B5: hD53 library interactor, pAD-GAL4 clone beginning at nt 111 of the hD53 cDNA (<Met1) (other)
chain: PSALFGGANFNQSGNIADSSLSFTFTNSSNGPNLITTQTNSQALSQPIASSNVHDNFMNNEITASKIDDGNNSKPLSPGWTDQTAYNAFGITTGMFNTTTMDDVYNYLFDDEDTPPNPKKEMEAQAQGLLETEPLQGTDEDAVASADFSSMLSEEEKEELKAELVQLEDEITTLRQVLSAKERHLVEIKQKLGMNLMNELKQNFSKSWHDMQTTTAYKKTHETLSHAGQKATAAFSNVGTAISKKFGDMSYSIRHSISMPAMRNSPTFKSFEERVETTVTSLKTKVGGTNPNGGSFEEVLSSTAHASAQSLAGGSRRTKEEELQC
notes: range 761-881; also called nt 111 (<Met^1)
B6: +5 hD53 library interactor (novel hD53 isoform, pAD-GAL4 clone) (other)
chain: PSALFGGANFNQSGNIADSSLSFTFTNSSNGPNLITTQTNSQALSQPIASSNVHDNFMNNEITASKIDDGNNSKPLSPGWTDQTAYNAFGITTGMFNTTTMDDVYNYLFDDEDTPPNPKKESSWLPWSEVLHRPWRNHPICLLETEPLQGTDEDAVASADFSSMLSEEEKEELKAELVQLEDEITTLRQVLSAKERHLVEIKQKLGMNLMNELKQNFSKSWHDMQTTTAYKKTHETLSHAGQKATAAFSNVGTAISKKFGDMRRK
notes: range 761-881; also called nt 1 (Ser^1)
B7: hD53 library interactor, pAD-GAL4 clone beginning at nt 81 of the hD53 cDNA (<Met1) (other)
chain: B5 chain
notes: range 761-881; also called nt 81 (<Met^1)
B8: mD52(1-163) interactor (GAL4 activation domain fusion, pACT2mD52(1-163)) (other)
chain: ANFNQSGNIADSSLSFTFTNSSNGPNLITTQTNSQALSQPIASSNVHDNFMNNEITASKIDDGNNSKPLSPGWTDQTAYNAFGITTGMFNTTTMDDVYNYLFDDEDTPPNPKKEMDRGEQGLLKTEPVAEEGEDAVTMLSAPEALTEEEQEELRRELTKVEEEIQTLSQVLAAKEKHLAELKRKLGISSLQEFKQNIAKGWQDVTATNAYKKTSETLSQAGQKASAAFSSVGSVITKKLEDVKNSPTFKSFEEKVENLKSKVGGAKPAGGDFGEVLN
notes: range 768-881
B9: hD53 interactor (GAL4 activation domain fusion, pACT2hD53) (other)
chain: ANFNQSGNIADSSLSFTFTNSSNGPNLITTQTNSQALSQPIASSNVHDNFMNNEITASKIDDGNNSKPLSPGWTDQTAYNAFGITTGMFNTTTMDDVYNYLFDDEDTPPNPKKEMEAQAQGLLETEPLQGTDEDAVASADFSSMLSEEEKEELKAELVQLEDEITTLRQVLSAKERHLVEIKQKLGMNLMNELKQNFSKSWHDMQTTTAYKKTHETLSHAGQKATAAFSNVGTAISKKFGDMSYSIRHSISMPAMRNSPTFKSFEERVETTVTSLKTKVGGTNPNGGSFEEVLSSTAHASAQSLAGGSRRTKEEELQC
notes: range 768-881
B10: hD54+ins2 interactor (GAL4 activation domain fusion, pACT2hD54+ins2) (other)
chain: ANFNQSGNIADSSLSFTFTNSSNGPNLITTQTNSQALSQPIASSNVHDNFMNNEITASKIDDGNNSKPLSPGWTDQTAYNAFGITTGMFNTTTMDDVYNYLFDDEDTPPNPKKEMDSAGQDINLNSPNKGLLSDSMTDVPVDTGVAARTPAVEGLTEAEEEELRAELTKVEEEIVTLRQVLAAKEKHCGELKRRLGLSTLGELKQNLSRSWHDVQVSSAYVKTSEKLGEWNEKVTQSDLYKKTQETLSQAGQKTSAALSTVGSAISRKLGDMRNSATFKSFEDRVGTIKSKVVGDRENGSDNLPSSAGSGDKPLSDPAPF
notes: range 768-881
B11: hD54-ins2 interactor (GAL4 activation domain fusion, pACT2hD54-ins2) (other)
chain: ANFNQSGNIADSSLSFTFTNSSNGPNLITTQTNSQALSQPIASSNVHDNFMNNEITASKIDDGNNSKPLSPGWTDQTAYNAFGITTGMFNTTTMDDVYNYLFDDEDTPPNPKKEMDSAGQDINLNSPNKGLLSDSMTDVPVDTGVAARTPAVEGLTEAEEEELRAELTKVEEEIVTLRQVLAAKEKHCGELKRRLGLSTLGELKQNLSRSWHDVQVSSAYKKTQETLSQAGQKTSAALSTVGSAISRKLGDMRNSATFKSFEDRVGTIKSKVVGDRENGSDNLPSSAGSGDKPLSDPAPF
notes: range 768-881

The binders below were run against GST protein (glutathione S-transferase alone) (UniProt P08515 1-218 = GST) (assay: GST pull-down, autoradiography).
Procedure: Proteins were isolated by incubating E. coli samples in isotonic lysis buffer (10 mM potassium phosphate pH 8.0, 140 mM KCl, 3 mM MgCl_2, 1 mM DTT, 0.5% Nonidet P-40, 0.5 mM PMSF) for 15 min on wet ice, followed by brief sonication. Protein product sizes were verified by electrophoresing pre- and post-induction protein samples on 10% SDS-polyacrylamide gels, followed by Coomassie Brilliant Blue staining. Post-induction protein extracts were incubated with glutathione-agarose (Sigma) which had been previously saturated in 0.5% (w/v) BSA (fraction V, Boehringer-Mannheim). Recombinant proteins (2–5 μg) bound to 30 μl glutathione agarose were then incubated with 7 μl of each in vitro translation reaction, and 2.6 mg soluble BL21 protein extract, prepared as described in Ausubel, F. M., el al., *Current Protocols in Molecular Biology* Vol. 3 (1996), for 2 h at 4° C. Matrixes were washed 3 times with 1 ml cold buffer (50 mM potassium phosphate pH 7.5, 150 mM KCl, 10 mM MgCl_2, 10% (v/v) glycerol, 1% Triton X-100, 0.5 mM PMSF), and bound proteins were eluted in 12 μl SDS-loading buffer (50 mM Tris pH 6.8, 2% (w/v) SDS, 10% (v/v) glycerol, 10% (v/v) 2-mercaptoethanol) by boiling for 5 min. Eluted proteins (6 μl) were separated on 10% SDS-polyacrylamide gels, which were stained with Coomassie Brilliant Blue, dried, and exposed to autoradiographic film (BioMax, Kodak) for 10 days at −80° C.

Chain of GST protein (glutathione S-transferase alone) (P08515 whole entry): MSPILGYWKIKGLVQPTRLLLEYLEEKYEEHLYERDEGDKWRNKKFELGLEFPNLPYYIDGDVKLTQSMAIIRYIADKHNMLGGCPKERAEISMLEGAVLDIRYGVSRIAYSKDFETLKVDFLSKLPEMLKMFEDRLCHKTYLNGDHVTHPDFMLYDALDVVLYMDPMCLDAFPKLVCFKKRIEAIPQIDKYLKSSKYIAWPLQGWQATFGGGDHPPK

Binder	binding result
B1	no binding
B2	no binding
B3	no binding

Each binder was assayed against T1, hD53 bait (GAL4 DNA-binding domain fusion, pAS2-1hD53) (human, UniProt P04386 1-147 (Saccharomyces cerevisiae entry)) (assay: yeast two-hybrid screening of a human breast carcinoma cDNA library in Y190 (His+ lacZ+)).
T1 construct: Fusion expressed in yeast; also called full-length hD53 bait

Binder	binding result
B4	binds
B5	binds
B6	binds
B7	binds

The binders below were run against T2, hD52 bait (GAL4 DNA-binding domain fusion, pAS2-1hD52) (human, UniProt P04386 1-147 (Saccharomyces cerevisiae entry)) (assay: yeast two-hybrid, Y190 co-transfectants, HIS3/lacZ reporters; interactor (GAL4-AD fusion) against bait (GAL4-DB fusion)).
T2 construct: Fusion expressed in yeast; also called full-length hD52 bait
Procedure: (§1) Interactions between baits and interactors were assessed by qualitatively and/or quantitatively determining HIS3 and/or lacZ reporter gene activity in Y190 co-transfectants.
(§2) Interactions between D52-like proteins within the yeast two-hybrid system, as measured by quantitative β-galactosidase assays. […] Three (or two*) colonies from each co-transfected Y190 strain were cultured in the absence of histidine, and assayed separately for β-galactosidase activity (see Methods). The mean number of β-galactosidase activity units obtained for each co-transfection is presented, ± the standard error.

Binder	binding result
B4	binds
B8	binds
B9	binds
B10	binds
B11	binds

Each binder was assayed against T1, hD53 bait (GAL4 DNA-binding domain …) in the same assay as above.
Procedure: as §1, §2

Binder	binding result
B8	binds
B9	binds
B10	binds
B11	binds

What follows are binders tested against T3, hD54+ins2 bait (GAL4 DNA-binding domain fusion, pAS2-1hD54+ins2) (human, UniProt P04386 1-147 (Saccharomyces cerevisiae entry)) in the same assay as above.
T3 construct: Fusion expressed in yeast
Procedure: as §1, §2

Binder	binding result
B4	binds
B8	binds
B9	binds
B10	binds
B11	binds

What follows are binders tested against T4, hD54-ins2 bait (GAL4 DNA-binding domain fusion, pAS2-1hD54-ins2) (human, UniProt P04386 1-147 (Saccharomyces cerevisiae entry)) in the same assay as above.
T4 construct: Fusion expressed in yeast
Procedure: as §1, §2

Binder	binding result
B4	binds
B8	binds
B9	binds
B10	binds
B11	binds
